Substitutions are numbered along the chain they refer to.
T1: FRETS-VWF73 fluorogenic substrate, P04275
T1 chain: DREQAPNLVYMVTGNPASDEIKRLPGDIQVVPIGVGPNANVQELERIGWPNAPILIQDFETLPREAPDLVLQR

B1: ADAMTS13 variant NGLY7 (664EYGNLT669 to 664ENVTLT669; glycan shift from N667 to Y665) (protein)
chain: AAGGILHLELLVAVGPDVFQAHQEDTERYVLTNLNIGAELLRDPSLGAQFRVHLVKMVILTEPEGAPNITANLTSSLLSVCGWSQTINPEDDTDPGHADLVLYITRFDLELPDGNRQVRGVTQLGGACSPTWSCLITEDTGFDLGVTIAHEIGHSFGLEHDGAPGSGCGPSGHVMASDGAAPRAGLAWSPCSRRQLLSLLSAGRARCVWDPPRPQPGSAGHPPDAQPGLYYSANEQCRVAFGPKAVACTFAREHLDMCQALSCHTDPLDQSSCSRLLVPLLDGTECGVEKWCSKGRCRSLVELTPIAAVHGRWSSWGPRSPCSRSCGGGVVTRRRQCNNPRPAFGGRACVGADLQAEMCNTQACEKTQLEFMSQQCARTDGQPLRSSPGGASFYHWGAAVPHSQGDALCRHMCRAIGESFIMKRGDSFLDGTRCMPSGPREDGTLSLCVSGSCRTFGCDGRMDSQQVWDRCQVCGGDNSTCSPRKGSFTAGRAREYVTFLTVTPNLTSVYIANHRPLFTHLAVRIGGRYVVAGKMSISPNTTYPSLLEDGRVEYRVALTEDRLPRLEEIRIWGPLQEDADIQVYRRYGEENVTLTRPDITFTYFQPKPRQAWVWAAVRGPCSVSCGAGLRWVNYSCLDQARKELVETVQCQGSQQPPAWPEACVLEPCPPYWAVGDFGPCSASCGGGLRERPVRCVEAQGSLLKTLPPARCRAGAQQPAVALETCNPQPCPARWEVSEPSSCTSAGGAGLALENETCVPGADGLEAPVTEGPGSVDEKLPAPEPCVGMSCPPGWGHLDATSAGEKAPSPWGSIRTGAQAAHVWTPAAGSCSVSCGRGLMELRFLCMDSALRVPVQEELCGLASKPGSRREVCQAVPCPARWQYKLAACSVSCGRGVVRRILYCARAHGEDDGEEILLDTQCQGLPRPEPQEACSLEPCPPRWKVMSLGPCSASCGLGTARRSVACVQLDQGQDVEVDEAACAALVRPEASVPCLIADCTYRWHVGTWMECSVSCGDGIQRRRDTCLGPQAQAPVPADFCQHLPKPVTVRGCWAGPCVGQGTPSLVPHEEAAAPGRTTATPAGASLEWSQARGLLFSPAPQPRRLLPGPQENSVQSSACGRQHLEPTGTIDMRGPGQADCAVAIGRPLGEVVTLRVLESSLNCSAGDMLLLWGRLTWRKMCRKLLDMTFSSKTNTLVVRQRCGRPGGGVLLRYGSQLAPETFYRECDMQLFGPWGEIVSPSLSPATSNAGGCRLFINVAPHARIAIHALATNMGAGTEGANASYILIRDTHSLRTTAFHGQQVLYWESESSQAEMEFSEGFLKAQASLRGQYWTLQSWVPEMQDPQSWKGKEGT
B2: ADAMTS13 variant NGLY3 + NGLY7 (607GNMSI611/664ENVTLT669) (protein)
chain: B1 chain with K534N
B3: ADAMTS13 variant NGLY8 (667NLTRP671 to 667LNVTA671; glycan shift from N667 to L668) (protein)
chain: B1 chain with N591Y, V592G, T593L, L594N, T595V, R596T, P597A
B4: ADAMTS13 variant NGLY3 + NGLY8 (607GNMSI611/667LNVTA671) (protein)
chain: B1 chain with K534N, N591Y, V592G, T593L, L594N, T595V, R596T, P597A

Target: T1, FRETS-VWF73 fluorogenic substrate, …

Row | Protein | Activity level (% relative to wild type ADAMTS13) VWFFRETS73 (% relative to wild type ADAMTS13) | FRETS-VWF73 activity relative to wild-type ADAMTS13 (text value, differs from Table 4)
1 | B1 | 125 | 
2 | B2 | 135 | NGLY3 plus NGLY7 was 125% active when compared to the wild type
3 | B3 | 76 | NGLY8 was 75% active when compared to wild-type ADAMTS13
4 | B4 | 120 | NGLY3 plus NGLY8 was 75% active when compared to wild type ADAMTS13

These proteins were tested against Von Willebrand Factor (VWF) multimers, P04275.

Row | Protein | Ability to process VWF multimers under denaturing conditions | vortex assay: processing of VWF multimers under shear stress
5 | B1 | +++++ | NGLY7 was clearly capable of processing the large VWF multimers
6 | B2 | +++++ | combination of NGLY3/NGLY7 retained proteolytic activity towards multimeric VWF
7 | B3 | ++ | NGLY8 displayed a reduced ability to process VWF multimers when compared to NGLY3 and NGLY7
8 | B4 | ++ | Combinations of NGLY3/NGLY8 also revealed a reduced ability to process VWF multimers
